# Test results published in patent US20220169728A1 (AB THERAPEUTICS, published 2022).
# Target: CD3 (Homo sapiens (Human), UniProt P07766 23-207; P04234 22-171; P09693 23-182)
# Assay: cell-based or functional assay
# Chain of CD3 (P07766 23-207 limits assumed, chain 1 of 3): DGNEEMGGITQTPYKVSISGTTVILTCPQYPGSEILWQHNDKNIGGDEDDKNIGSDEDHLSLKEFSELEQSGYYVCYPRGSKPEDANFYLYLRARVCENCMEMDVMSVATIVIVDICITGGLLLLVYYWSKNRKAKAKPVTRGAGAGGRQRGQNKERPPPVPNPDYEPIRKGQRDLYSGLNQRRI
# Chain of CD3 (P04234 22-171 limits assumed, chain 2 of 3): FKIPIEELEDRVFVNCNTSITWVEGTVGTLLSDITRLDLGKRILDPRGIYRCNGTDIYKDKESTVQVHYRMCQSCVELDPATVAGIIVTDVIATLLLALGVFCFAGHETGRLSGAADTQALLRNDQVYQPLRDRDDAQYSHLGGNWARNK
# Chain of CD3 (P09693 23-182 limits assumed, chain 3 of 3): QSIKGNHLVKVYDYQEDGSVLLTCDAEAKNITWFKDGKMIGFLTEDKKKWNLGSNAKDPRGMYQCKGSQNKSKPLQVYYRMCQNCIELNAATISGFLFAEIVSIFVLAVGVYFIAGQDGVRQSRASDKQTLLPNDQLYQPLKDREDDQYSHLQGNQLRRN
Binder,"Function % 0.025 ug/ml (T cell activation, CD69 on Jurkat cells with Raji cells, against the unmutated baseline) [%]","Function % 2 ug/ml (T cell activation, CD69 on Jurkat cells with Raji cells, against the unmutated baseline) [%]"
"CD20/CD3 BsMab with common VL (SEQ ID NO: 3) H33R (bispecific antibody, V domains shown) VH 1: QVQLQQPGAELVKPGASVKMSCKASGYTFTSYNMHWVKQTPGRGLEWIGAIYPGNGDTSYNQKFKGKATLTADKSSSTAYMQLSSLRSEDSAVYYCARSTYYGGDWYFNVWGAGTTVTVSA VH 2: EVQLQESGAELARPGASVKMSCKASGYTFTSYTMHWVKQRPGEGLEWIGYINPSSGYTKYNQKFKDKATLTADKSSSTAYMELSSLTSEDSAVYYCARWQDYDVYFDYWGEGTTLTVSS VL: QIVLSQSPAILSASPGEKVTMTCRASSSVSYIRWFQQKPGSSPKPWIYATSNLASGVPVRFSGSGSGTSYSLTISRVEAEDAATYYCQQWTSNPPTFGGGTKLEIKR",9,54
"CD20/CD3 BsMab with common VL (SEQ ID NO: 3) H33S (bispecific antibody, V domains shown) VH 1: QVQLQQPGAELVKPGASVKMSCKASGYTFTSYNMHWVKQTPGRGLEWIGAIYPGNGDTSYNQKFKGKATLTADKSSSTAYMQLSSLRSEDSAVYYCARSTYYGGDWYFNVWGAGTTVTVSA VH 2: EVQLQESGAELARPGASVKMSCKASGYTFTSYTMHWVKQRPGEGLEWIGYINPSSGYTKYNQKFKDKATLTADKSSSTAYMELSSLTSEDSAVYYCARWQDYDVYFDYWGEGTTLTVSS VL: QIVLSQSPAILSASPGEKVTMTCRASSSVSYISWFQQKPGSSPKPWIYATSNLASGVPVRFSGSGSGTSYSLTISRVEAEDAATYYCQQWTSNPPTFGGGTKLEIKR",108,95
"CD20/CD3 BsMab with common VL (SEQ ID NO: 3) N93L (bispecific antibody, V domains shown) VH 1: QVQLQQPGAELVKPGASVKMSCKASGYTFTSYNMHWVKQTPGRGLEWIGAIYPGNGDTSYNQKFKGKATLTADKSSSTAYMQLSSLRSEDSAVYYCARSTYYGGDWYFNVWGAGTTVTVSA VH 2: EVQLQESGAELARPGASVKMSCKASGYTFTSYTMHWVKQRPGEGLEWIGYINPSSGYTKYNQKFKDKATLTADKSSSTAYMELSSLTSEDSAVYYCARWQDYDVYFDYWGEGTTLTVSS VL: QIVLSQSPAILSASPGEKVTMTCRASSSVSYIHWFQQKPGSSPKPWIYATSNLASGVPVRFSGSGSGTSYSLTISRVEAEDAATYYCQQWTSLPPTFGGGTKLEIKR",9,65
"CD20/CD3 BsMab with common VL (SEQ ID NO: 3) N93S (bispecific antibody, V domains shown) VH 1: QVQLQQPGAELVKPGASVKMSCKASGYTFTSYNMHWVKQTPGRGLEWIGAIYPGNGDTSYNQKFKGKATLTADKSSSTAYMQLSSLRSEDSAVYYCARSTYYGGDWYFNVWGAGTTVTVSA VH 2: EVQLQESGAELARPGASVKMSCKASGYTFTSYTMHWVKQRPGEGLEWIGYINPSSGYTKYNQKFKDKATLTADKSSSTAYMELSSLTSEDSAVYYCARWQDYDVYFDYWGEGTTLTVSS VL: QIVLSQSPAILSASPGEKVTMTCRASSSVSYIHWFQQKPGSSPKPWIYATSNLASGVPVRFSGSGSGTSYSLTISRVEAEDAATYYCQQWTSSPPTFGGGTKLEIKR",15,90
"CD20/CD3 BsMab with common VL (SEQ ID NO: 3) H33G (bispecific antibody, V domains shown) VH 1: QVQLQQPGAELVKPGASVKMSCKASGYTFTSYNMHWVKQTPGRGLEWIGAIYPGNGDTSYNQKFKGKATLTADKSSSTAYMQLSSLRSEDSAVYYCARSTYYGGDWYFNVWGAGTTVTVSA VH 2: EVQLQESGAELARPGASVKMSCKASGYTFTSYTMHWVKQRPGEGLEWIGYINPSSGYTKYNQKFKDKATLTADKSSSTAYMELSSLTSEDSAVYYCARWQDYDVYFDYWGEGTTLTVSS VL: QIVLSQSPAILSASPGEKVTMTCRASSSVSYIGWFQQKPGSSPKPWIYATSNLASGVPVRFSGSGSGTSYSLTISRVEAEDAATYYCQQWTSNPPTFGGGTKLEIKR",100,101
"CD20/CD3 BsMab with common VL (SEQ ID NO: 3) H33A (bispecific antibody, V domains shown) VH 1: QVQLQQPGAELVKPGASVKMSCKASGYTFTSYNMHWVKQTPGRGLEWIGAIYPGNGDTSYNQKFKGKATLTADKSSSTAYMQLSSLRSEDSAVYYCARSTYYGGDWYFNVWGAGTTVTVSA VH 2: EVQLQESGAELARPGASVKMSCKASGYTFTSYTMHWVKQRPGEGLEWIGYINPSSGYTKYNQKFKDKATLTADKSSSTAYMELSSLTSEDSAVYYCARWQDYDVYFDYWGEGTTLTVSS VL: QIVLSQSPAILSASPGEKVTMTCRASSSVSYIAWFQQKPGSSPKPWIYATSNLASGVPVRFSGSGSGTSYSLTISRVEAEDAATYYCQQWTSNPPTFGGGTKLEIKR",65,104
"CD20/CD3 BsMab with common VL (SEQ ID NO: 3) H33V (bispecific antibody, V domains shown) VH 1: QVQLQQPGAELVKPGASVKMSCKASGYTFTSYNMHWVKQTPGRGLEWIGAIYPGNGDTSYNQKFKGKATLTADKSSSTAYMQLSSLRSEDSAVYYCARSTYYGGDWYFNVWGAGTTVTVSA VH 2: EVQLQESGAELARPGASVKMSCKASGYTFTSYTMHWVKQRPGEGLEWIGYINPSSGYTKYNQKFKDKATLTADKSSSTAYMELSSLTSEDSAVYYCARWQDYDVYFDYWGEGTTLTVSS VL: QIVLSQSPAILSASPGEKVTMTCRASSSVSYIVWFQQKPGSSPKPWIYATSNLASGVPVRFSGSGSGTSYSLTISRVEAEDAATYYCQQWTSNPPTFGGGTKLEIKR",83,104
"CD20/CD3 BsMab with common VL (SEQ ID NO: 3) H33D (bispecific antibody, V domains shown) VH 1: QVQLQQPGAELVKPGASVKMSCKASGYTFTSYNMHWVKQTPGRGLEWIGAIYPGNGDTSYNQKFKGKATLTADKSSSTAYMQLSSLRSEDSAVYYCARSTYYGGDWYFNVWGAGTTVTVSA VH 2: EVQLQESGAELARPGASVKMSCKASGYTFTSYTMHWVKQRPGEGLEWIGYINPSSGYTKYNQKFKDKATLTADKSSSTAYMELSSLTSEDSAVYYCARWQDYDVYFDYWGEGTTLTVSS VL: QIVLSQSPAILSASPGEKVTMTCRASSSVSYIDWFQQKPGSSPKPWIYATSNLASGVPVRFSGSGSGTSYSLTISRVEAEDAATYYCQQWTSNPPTFGGGTKLEIKR",109,96
"CD20/CD3 BsMab with common VL (SEQ ID NO: 3) H33P (bispecific antibody, V domains shown) VH 1: QVQLQQPGAELVKPGASVKMSCKASGYTFTSYNMHWVKQTPGRGLEWIGAIYPGNGDTSYNQKFKGKATLTADKSSSTAYMQLSSLRSEDSAVYYCARSTYYGGDWYFNVWGAGTTVTVSA VH 2: EVQLQESGAELARPGASVKMSCKASGYTFTSYTMHWVKQRPGEGLEWIGYINPSSGYTKYNQKFKDKATLTADKSSSTAYMELSSLTSEDSAVYYCARWQDYDVYFDYWGEGTTLTVSS VL: QIVLSQSPAILSASPGEKVTMTCRASSSVSYIPWFQQKPGSSPKPWIYATSNLASGVPVRFSGSGSGTSYSLTISRVEAEDAATYYCQQWTSNPPTFGGGTKLEIKR",34,94
"CD20/CD3 BsMab with common VL (SEQ ID NO: 3) H33T (bispecific antibody, V domains shown) VH 1: QVQLQQPGAELVKPGASVKMSCKASGYTFTSYNMHWVKQTPGRGLEWIGAIYPGNGDTSYNQKFKGKATLTADKSSSTAYMQLSSLRSEDSAVYYCARSTYYGGDWYFNVWGAGTTVTVSA VH 2: EVQLQESGAELARPGASVKMSCKASGYTFTSYTMHWVKQRPGEGLEWIGYINPSSGYTKYNQKFKDKATLTADKSSSTAYMELSSLTSEDSAVYYCARWQDYDVYFDYWGEGTTLTVSS VL: QIVLSQSPAILSASPGEKVTMTCRASSSVSYITWFQQKPGSSPKPWIYATSNLASGVPVRFSGSGSGTSYSLTISRVEAEDAATYYCQQWTSNPPTFGGGTKLEIKR",99,106
"CD20/CD3 BsMab with common VL (SEQ ID NO: 3) H33M (bispecific antibody, V domains shown) VH 1: QVQLQQPGAELVKPGASVKMSCKASGYTFTSYNMHWVKQTPGRGLEWIGAIYPGNGDTSYNQKFKGKATLTADKSSSTAYMQLSSLRSEDSAVYYCARSTYYGGDWYFNVWGAGTTVTVSA VH 2: EVQLQESGAELARPGASVKMSCKASGYTFTSYTMHWVKQRPGEGLEWIGYINPSSGYTKYNQKFKDKATLTADKSSSTAYMELSSLTSEDSAVYYCARWQDYDVYFDYWGEGTTLTVSS VL: QIVLSQSPAILSASPGEKVTMTCRASSSVSYIMWFQQKPGSSPKPWIYATSNLASGVPVRFSGSGSGTSYSLTISRVEAEDAATYYCQQWTSNPPTFGGGTKLEIKR",13,74
"CD20/CD3 BsMab with common VL (SEQ ID NO: 3) H33W (bispecific antibody, V domains shown) VH 1: QVQLQQPGAELVKPGASVKMSCKASGYTFTSYNMHWVKQTPGRGLEWIGAIYPGNGDTSYNQKFKGKATLTADKSSSTAYMQLSSLRSEDSAVYYCARSTYYGGDWYFNVWGAGTTVTVSA VH 2: EVQLQESGAELARPGASVKMSCKASGYTFTSYTMHWVKQRPGEGLEWIGYINPSSGYTKYNQKFKDKATLTADKSSSTAYMELSSLTSEDSAVYYCARWQDYDVYFDYWGEGTTLTVSS VL: QIVLSQSPAILSASPGEKVTMTCRASSSVSYIWWFQQKPGSSPKPWIYATSNLASGVPVRFSGSGSGTSYSLTISRVEAEDAATYYCQQWTSNPPTFGGGTKLEIKR",14,87
"CD20/CD3 BsMab with common VL (SEQ ID NO: 3) H33E (bispecific antibody, V domains shown) VH 1: QVQLQQPGAELVKPGASVKMSCKASGYTFTSYNMHWVKQTPGRGLEWIGAIYPGNGDTSYNQKFKGKATLTADKSSSTAYMQLSSLRSEDSAVYYCARSTYYGGDWYFNVWGAGTTVTVSA VH 2: EVQLQESGAELARPGASVKMSCKASGYTFTSYTMHWVKQRPGEGLEWIGYINPSSGYTKYNQKFKDKATLTADKSSSTAYMELSSLTSEDSAVYYCARWQDYDVYFDYWGEGTTLTVSS VL: QIVLSQSPAILSASPGEKVTMTCRASSSVSYIEWFQQKPGSSPKPWIYATSNLASGVPVRFSGSGSGTSYSLTISRVEAEDAATYYCQQWTSNPPTFGGGTKLEIKR",89,104
